These are literature values, as cited in US20070231406A1, “Use of gallium to treat biofilm-associated infections” (priority 2006, published 2007).

This series relates to Pseudomonas aeruginosa biofilm. The conditions noted are these: 20 μg/ml lactoferrin.

B1: lactoferrin (protein, UniProt P02788 20-710, looked up)
Lactotransferrin: GRRRSVQWCAVSQPEATKCFQWQRNMRKVRGPPVSCIKRDSPIQCIQAIAENRADAVTLDGGFIYEAGLAPYKLRPVAAEVYGTERQPRTHYYAVAVVKKGGSFQLNELQGLKSCHTGLRRTAGWNVPIGTLRPFLNWTGPPEPIEAAVARFFSASCVPGADKGQFPNLCRLCAGTGENKCAFSSQEPYFSYSGAFKCLRDGAGDVAFIRESTVFEDLSDEAERDEYELLCPDNTRKPVDKFKDCHLARVPSHAVVARSVNGKEDAIWNLLRQAQEKFGKDKSPKFQLFGSPSGQKDLLFKDSAIGFSRVPPRIDSGLYLGSGYFTAIQNLRKSEEEVAARRARVVWCAVGEQELRKCNQWSGLSEGSVTCSSASTTEDCIALVLKGEADAMSLDGGYVYTAGKCGLVPVLAENYKSQQSSDPDPNCVDRPVEGYLAVAVVRRSDTSLTWNSVKGKKSCHTAVDRTAGWNIPMGLLFNQTGSCKFDEYFSQSCAPGSDPRSNLCALCIGDEQGENKCVPNSNERYYGYTGAFRCLAENAGDVAFVKDVTVLQNTDGNNNEAWAKDLKLADFALLCLDGKRKPVTEARSCHLAMAPNHAVVSRMDKVERLKQVLLHQQAKFGRNGSDCPDKFCLFQSETKNLLFNDNTECLARLHGKTTYEKYLGPQYVAGITNLKKCSTSPLLEACEFLRK
Take B1: the “Pseudomonas aeruginosa biofilm formation” value is “inhibited”.
